In US20260209317A1:
Read-outs that look alike come from different tables or passages of the source.

Columns and labels:
[1] = molecular target: SARS-CoV-2 WA-1 S-2P spike protein (SARS-CoV-2), P0DTC2; settings: remark: other sources report otherwise
[2] = molecular target: T1, SARS-CoV-2 Omicron BA.1 spike protein (on pseudotyped lentivirus) (SARS-CoV-2), P0DTC2
[3] = molecular target: T1, SARS-CoV-2 Omicron BA.1 spike protein …; assay: cell-based or functional assay

Binder | % inhibition of ACE2 binding [1] [%] | neutralization IC50 [2] [µg/mL] | neutralization IC80 [2] [µg/mL] | neutralization IC50 [3] [µg/mL]
A19-46.1 (antibody) chain 1: QVQLVESGGGVVQPGRSLRLSCAASGFTLSSYGMHWVRQAPGKGLEWVAVISYDGSNKYYVDSVKGRFTISRDNSKNTLYLQMNSLRAEDTAVYYCARGWAYWELLPDYYYGMDVWGQGTTVTVSS chain 2: QTVVTQEPSFSVSPGGTVTLTCGLSSGSVSTAYFPSWYQQTPGQAPRTLIYGTNTRSSGVPDRFSGSILGNKAALTITGAQADDESDYYCVLYMGRGIVVFGGGTKLTVL | 98 |  |  | 
B2-269.1 (antibody, V domains shown) VH: EVQLVESGGGLVQPGGSLRLSCAASGITVSSNYMSWVRQPPGKGLDWVSLIFSGGSTYYADSVKGRFTISRDNSKNTLYLQMNSLRAEDTAVYYCARVGVAVAGTDYDIWGQGTMVTVSS VL: DIQMTQSPSSLSASVGDRVTITCQASQDINKYLNWYQQKPGKAPKLLIYDASNLETGVPSRFSGSGSGTDFTFTISSLQPEDIATYYCLHYENLPLSFGGGTKVEIK |  | 0.01 | 0.02 | < 0.1
